# According to US20250011363A1, “OPTIMIZED SHORTENED PEPTIDE THAT BINDS TO ACETYLCHOLINE RECEPTOR, AND USE THEREOF” (SKINMED CO., LTD., priority 2021, published 2025):
# Target: acetylcholine receptor
# Assay: SPR, AchR immobilised on CM5 chip, peptide at 10 uM
row,Binder,Binding affinity (RU)
1,RHWEK [5mer-1195],19
2,RYHWR [5mer-896],27
3,RICIR [5mer-1196],24
4,KFCER [5mer-897],30
5,KDDAR [5mer-1197],24
6,RYCMR [5mer-898],20
7,RAADK [5mer-1198],25
8,RRRVLR [6mer-1-402],153
9,KRSQTK [6mer-1-403],153
10,KKQRQK [6mer-1-404],137
11,KKVQTR [6mer-1-1405],148
12,RKVLLR [6mer-1-406],153
13,KRLRTR [6mer-1-407],153
14,KRGRSR [6mer-1-408],147
15,RRWISR [6mer-1-409],144
16,KRVLRK [6mer-1-410],148
17,RRQRSR [6mer-1-411],121
18,RKSILK [6mer-1-412],139
19,RKQFCR [6mer-1-413],148

row,Binder,Binding affinity (RU)
1,KRSFLR [6mer-1-414],153
2,RRGVCR [6mer-1-415],135
3,RKLIYR [6mer-1-416],153
4,RKSVCK [6mer-1-417],139
5,RRQVRK [6mer-1-418],123
6,KRGFYR [6mer-1-419],148
7,KKGQYK [6mer-1-420],148
8,RKVLYR [6mer-1-421],135
9,KRVRQR [6mer-1-422],154
10,RRGYCK [6mer-1-423],147
11,RRRIYR [6mer-1-424],135
12,RKGVQK [6mer-1-425],131
13,KKGQYR [6mer-1-426],131
14,KRWVLR [6mer-1-427],147
15,KRVVLR [6mer-1-428],139
16,RRQRRK [6mer-1-429],135
17,KKQLQK [6mer-1-430],144
18,RRRFRR [6mer-1-431],144
19,RKGIQK [6mer-1-432],139

row,Binder,Binding affinity (RU)
1,RKQQYR [6mer-1-433],154
2,KRWVCR [6mer-1-434],137
3,RKWRCK [6mer-1-435],135
4,KKLFYK [6mer-1-436],148
5,RKWFLK [6mer-1-437],131
6,RRGFQK [6mer-1-438],142
7,KRRQTK [6mer-1-439],121
8,KRVYSK [6mer-1-440],153
9,RRVYYR [6mer-1-441],146
10,RKLQYK [6mer-1-442],131
11,RKVLLK [6mer-1-443],145
12,KKWILK [6mer-1-444],144
13,KRVRLR [6mer-1-445],145
14,RRVIRR [6mer-1-446],124
15,RRRQQK [6mer-1-447],146
16,RKRFSR [6mer-1-448],141
17,KRGRCK [6mer-1-449],135
18,RKVVYK [6mer-1-450],151
